Among the data in the supplement of paper PMC10567573 are protein stability index values, retold here.

The chains are these.
B1: FUNDC2 (parent)
chain: YIKVDWQRVEKDMKKAKEQLKIRK
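Also: lentivirally expressed fusions sorted by FACS into six bins by GFP to DsRed ratio, PSI derived from sequencing read proportions per bin multiplied by bin number.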

The variants in this data set derive from B1. As to the kind of experiment: protein stability index of a GFP-peptide fusion (GPS, HEK-293T) (PSI 1-6); higher = more stable. The note with it: c terminus: a fixed tail appended.
Consider YIKVDWQRVEKDMKKAYEQLKIRK [K17Y], for which the protein stability index came out at 2.37. YIKVDWQRVEKDMKKAKEQLFIRK [K21F]: the protein stability index is 1.69. Regarding YIKVDWQRVEKDMKKAKEQLIIRK [K21I], the protein stability index was 1.68. With YIKVDWQRVEKDMKKAKEQLRIRK [K21R], the protein stability index stood at 2. With YIKVDWQRVEKDMKKAKEQLPIRK [K21P] the figure was 1.84; with YIKVDWQRVEKDMKKAKEQLAIRK [K21A], 1.87.

For YIKVDWQRVEKDMKKAKEQLDIRK [K21D], the protein stability index is 1.86. On to YIKVDWQRVEKDMKKAKEQLEIRK [K21E], for which the protein stability index came out at 2.28. For the variant YIKVDWQRVEKDMKKAKEQLSIRK [K21S], the protein stability index was found to be 2.22.

For YIKVDWQRVEKDMKKAKEQLTIRK [K21T], the protein stability index turned out to be 1.87. YIKVDWQRVEKDMKKAKQQLKIRK [E18Q]: the protein stability index amounted to 1.99. For YIKVDWQRVEKDMKKAKVQLKIRK [E18V], the protein stability index worked out at 1.69.

Consider YIKVDWQRVEKDMKKAKMQLKIRK [E18M], for which the protein stability index came to 1.59.

Regarding YIKVDWQRVEKDMKKAKAQLKIRK [E18A], the protein stability index amounted to 1.97. As for YIKVDWQRVEKDMKKAKKQLKIRK [E18K], the protein stability index came to 1.84. Regarding YIKVDWQRVEKDMKKAKHQLKIRK [E18H], the protein stability index is 2.41.

Turning to YIKVDWQRVEKDMKKAKRQLKIRK [E18R], the protein stability index stood at 1.57. For the variant YIKVDWQRVEKDMKKAKEQLKRRK [I22R], the protein stability index was 1.29. With YIKVDWQRVEKDMKKAKEQLKERK [I22E] the figure was 2.65. With YIKVDWQRVEKDMKKAKEQLKWRK [I22W], the protein stability index was 2.11.

On to YIKVDWQRVEKDMKKAKEQLKFRK [I22F], for which the protein stability index turned out to be 2.12. The figure for YIKVDWQRVEKDMKKAKEQLKCRK [I22C] is 1.47; for YIKVDWQRVEKDMKKAKEQLKLRK [I22L] it is 2.12; for YIKVDWQRVEKDMKKAKEQLKSRK [I22S] it is 2.01. YIKIDWQRVEKDMKKAKEQLKIRK [V4I]: the protein stability index worked out at 2.53. As for YIKEDWQRVEKDMKKAKEQLKIRK [V4E], the protein stability index stood at 1.81.

In the case of YIKYDWQRVEKDMKKAKEQLKIRK [V4Y], the protein stability index came out at 2.4.

Turning to YIKKDWQRVEKDMKKAKEQLKIRK [V4K], the protein stability index worked out at 1.92. For the variant YIKDDWQRVEKDMKKAKEQLKIRK [V4D], the protein stability index came to 1.99. The figure for YIKFDWQRVEKDMKKAKEQLKIRK [V4F] is 1.73; for YIKMDWQRVEKDMKKAKEQLKIRK [V4M] it is 1.45.

On to YIKRDWQRVEKDMKKAKEQLKIRK [V4R], for which the protein stability index was determined as 2.74.

Turning to YIKVDWSRVEKDMKKAKEQLKIRK [Q7S], the protein stability index turned out to be 1.76. For the variant YIKVDWKRVEKDMKKAKEQLKIRK [Q7K], the protein stability index is 1.95.

With YIKVDWGRVEKDMKKAKEQLKIRK [Q7G], the protein stability index is 2.9.

As to YIKVDWARVEKDMKKAKEQLKIRK [Q7A], the protein stability index was determined as 1.79. Turning to YIKVDWYRVEKDMKKAKEQLKIRK [Q7Y], the protein stability index amounted to 1.69. Turning to YIKVDWDRVEKDMKKAKEQLKIRK [Q7D], the protein stability index worked out at 1.49. On to YIKVDWNRVEKDMKKAKEQLKIRK [Q7N], for which the protein stability index came out at 2.47. Turning to YIKVDWQRVEKDMKAAKEQLKIRK [K15A], the protein stability index was found to be 1.78. As to YIKVDWQRVEKDMKVAKEQLKIRK [K15V], the protein stability index was found to be 2.39. As for YIKVDWQRVEKDMKHAKEQLKIRK [K15H], the protein stability index worked out at 1.44. As to YIKVDWQRVEKDMKRAKEQLKIRK [K15R], the protein stability index turned out to be 1.92. Turning to YIKVDWQRVEKDMKIAKEQLKIRK [K15I], the protein stability index was determined as 2.01.

For YIKVDWQRVEKDMKFAKEQLKIRK [K15F], the protein stability index amounted to 1.42. With YIKVDWQRVEKDMKNAKEQLKIRK [K15N], the protein stability index amounted to 1.88.

Take YIKVDWQRVEKDMKMAKEQLKIRK [K15M]: the protein stability index was found to be 1.79. With YIKVDWQRVEKDMKGAKEQLKIRK [K15G], the protein stability index was determined as 1.89. With YIKVDWQRVEKDMKEAKEQLKIRK [K15E], the protein stability index was determined as 1.55.

Turning to YIKVYWQRVEKDMKKAKEQLKIRK [D5Y], the protein stability index was 3.3.

Take YIKVAWQRVEKDMKKAKEQLKIRK [D5A]: the protein stability index turned out to be 3.55. YIKVQWQRVEKDMKKAKEQLKIRK [D5Q]: the protein stability index was 1.62. Turning to YIKVGWQRVEKDMKKAKEQLKIRK [D5G], the protein stability index came out at 2.43. For YIKVRWQRVEKDMKKAKEQLKIRK [D5R], the protein stability index worked out at 1.78. The figure for YIKVHWQRVEKDMKKAKEQLKIRK [D5H] is 1.64. Regarding YIKVDWQRVKKDMKKAKEQLKIRK [E10K], the protein stability index is 1.73. With YIKVDWQRVMKDMKKAKEQLKIRK [E10M], the protein stability index was determined as 1.73. Regarding YIKVDWQRVVKDMKKAKEQLKIRK [E10V], the protein stability index stood at 1.52. In the case of YIKVDWQRVPKDMKKAKEQLKIRK [E10P], the protein stability index came to 1.77. As for YIKVDWQRVQKDMKKAKEQLKIRK [E10Q], the protein stability index stood at 1.36.

YIKVDWQRVEKYMKKAKEQLKIRK [D12Y]: the protein stability index came out at 3.43. The figure for YIKVDWQRVEKEMKKAKEQLKIRK [D12E] is 1.82; for YIKVDWQRVEKRMKKAKEQLKIRK [D12R] it is 1.91; for YIKVDWQRVEKPMKKAKEQLKIRK [D12P] it is 1.45.

Consider YIKVDWQRVEKDMKKAKEQLKIRA [K24A], for which the protein stability index was 2.81. In the case of YIKVDWQRVEKDMKKAKEQLKIRR [K24R], the protein stability index came to 1.12.

YIKVDWQRVEKDMKKAKEQLKIRE [K24E]: the protein stability index was 2.03.

Regarding YIKVDWQRVEKDMKKAKEQLKIRN [K24N], the protein stability index stood at 2.07. As for YIKVDWQRVEKDMKKAKEQLKIRQ [K24Q], the protein stability index is 1.31.

Consider YIKVDWQRVEKDMKKAKEQLKIRL [K24L], for which the protein stability index amounted to 2.16. For YIKVDWQRVEKDMKKAKEQLKIRH [K24H], the protein stability index was 2.12. Turning to YIKVDWQRVEKDMKKAKEQLKIRT [K24T], the protein stability index amounted to 1.76.

As to YIKVDWQRVEKDMKKAKEQLKIRC [K24C], the protein stability index is 2.47. With YIKVDWQRVEKDMKKAKEQLKIRW [K24W] the figure was 1.69; with YIKVDWQRVEKDMKKAKEWLKIRK [Q19W], 1.79.

With YIKVDWQRVEKDMKKAKEILKIRK [Q19I], the protein stability index turned out to be 1.49. The figure for YIKVDWQRVEKDMKKAKECLKIRK [Q19C] is 1.43. On to YIKVDWQRVEKDMKKAKERLKIRK [Q19R], for which the protein stability index amounted to 1.33. With YIKVDWQRVEKDMKKAKEFLKIRK [Q19F] the figure was 1.56; with YIKVDWQRVEKDMKKAKETLKIRK [Q19T], 2.8; with YIKVDWQRVEKDMKKAKEALKIRK [Q19A], 1.86. Consider YIKVDWQRVEKDMKKAKEELKIRK [Q19E], for which the protein stability index worked out at 2.68. Consider FIKVDWQRVEKDMKKAKEQLKIRK [Y1F], for which the protein stability index turned out to be 1.85.

With GIKVDWQRVEKDMKKAKEQLKIRK [Y1G], the protein stability index amounted to 4.26.

Regarding MIKVDWQRVEKDMKKAKEQLKIRK [Y1M], the protein stability index came out at 2.63. On to LIKVDWQRVEKDMKKAKEQLKIRK [Y1L], for which the protein stability index is 3.22.

Take VIKVDWQRVEKDMKKAKEQLKIRK [Y1V]: the protein stability index turned out to be 2.53. With AIKVDWQRVEKDMKKAKEQLKIRK [Y1A] the figure was 2.98; with YIKVDWQRYEKDMKKAKEQLKIRK [V9Y], 1.67. As to YIKVDWQREEKDMKKAKEQLKIRK [V9E], the protein stability index is 2.56. Consider YIKVDWQRAEKDMKKAKEQLKIRK [V9A], for which the protein stability index was 1.5. As for YIKVDWQRWEKDMKKAKEQLKIRK [V9W], the protein stability index turned out to be 1.99.

Consider YIKVDWQRPEKDMKKAKEQLKIRK [V9P], for which the protein stability index is 1.81. Regarding YIKVDWQRIEKDMKKAKEQLKIRK [V9I], the protein stability index was determined as 2.28.
